# Source: article PMC10397247
# Experiments:
# Assay in all cases: two-hybrid library CCmax;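 note: natural log of median RNA to DNA barcode read ratio; higher means stronger binding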
# 4H566-AA = target: T1, 4H566-AA; settings: mean of both orientations
# T1 chain: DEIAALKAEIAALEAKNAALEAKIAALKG
# 4H454-AA = target: T2, 4H454-AA; settings: mean of both orientations
# T2 chain: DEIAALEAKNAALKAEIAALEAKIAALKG
# 4H2466-AA = target: T3, 4H2466-AA; settings: mean of both orientations
# T3 chain: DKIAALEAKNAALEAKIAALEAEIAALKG
# 4H2944-AA = target: T4, 4H2944-AA; settings: mean of both orientations
# T4 chain: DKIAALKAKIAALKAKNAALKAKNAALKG
# 4H3112-AA = target: T5, 4H3112-AA; settings: mean of both orientations
# T5 chain: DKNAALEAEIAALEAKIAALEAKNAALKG
# 4H335-AA = target: T6, 4H335-AA
# T6 chain: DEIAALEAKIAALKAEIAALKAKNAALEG
# 4H2754-AA = target: T7, 4H2754-AA; settings: mean of both orientations
# T7 chain: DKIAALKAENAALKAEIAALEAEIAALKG
# 4H3427-AA = target: T8, 4H3427-AA; settings: mean of both orientations
# T8 chain: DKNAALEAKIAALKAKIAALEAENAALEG
# 4H3844-AA = target: T9, 4H3844-AA; settings: mean of both orientations
# T9 chain: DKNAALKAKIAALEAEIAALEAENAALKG
# 4H678-AA = target: T10, 4H678-AA; settings: mean of both orientations
# T10 chain: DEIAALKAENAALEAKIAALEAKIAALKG
# 4H2151-AA = target: T11, 4H2151-AA; settings: mean of both orientations
# T11 chain: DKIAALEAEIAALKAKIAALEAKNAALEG
# 4H2617-AA = target: T12, 4H2617-AA; settings: mean of both orientations
# T12 chain: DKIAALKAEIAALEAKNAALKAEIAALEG
# 4H3606-AA = target: T13, 4H3606-AA; settings: mean of both orientations
# T13 chain: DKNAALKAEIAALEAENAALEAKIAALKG
# 4H881-AA = target: T14, 4H881-AA; settings: mean of both orientations
# T14 chain: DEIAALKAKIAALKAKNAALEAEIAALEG
# 4H2642-AA = target: T15, 4H2642-AA; settings: mean of both orientations
# T15 chain: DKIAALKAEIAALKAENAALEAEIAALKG
# 4H234-AA = target: T16, 4H234-AA; settings: mean of both orientations
# T16 chain: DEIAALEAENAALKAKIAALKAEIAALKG
# 4H2078-AA = target: T17, 4H2078-AA; settings: mean of both orientations
# T17 chain: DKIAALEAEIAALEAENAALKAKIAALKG
# 4H1636-AA = target: T18, 4H1636-AA; settings: mean of both orientations
# T18 chain: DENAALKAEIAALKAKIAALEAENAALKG
# 4H1552-AA = target: T19, 4H1552-AA
# T19 chain: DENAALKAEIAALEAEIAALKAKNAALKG
# 4H3655-AA = target: T20, 4H3655-AA; settings: mean of both orientations
# T20 chain: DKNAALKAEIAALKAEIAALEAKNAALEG
# 4H717-AA = target: T21, 4H717-AA; settings: mean of both orientations
# T21 chain: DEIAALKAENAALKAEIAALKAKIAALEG
# 4H317-AA = target: T22, 4H317-AA; settings: mean of both orientations
# T22 chain: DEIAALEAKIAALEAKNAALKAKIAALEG
# 4H48-AA = target: T23, 4H48-AA; settings: mean of both orientations
# T23 chain: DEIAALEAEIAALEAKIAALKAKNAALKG
# 4H605-AA = target: T24, 4H605-AA; settings: mean of both orientations
# T24 chain: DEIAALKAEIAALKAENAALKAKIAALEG
# 4H780-AA = target: T25, 4H780-AA; settings: mean of both orientations
# T25 chain: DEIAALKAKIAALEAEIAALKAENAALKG
# 4H2277-AA = target: T26, 4H2277-AA; settings: mean of both orientations
# T26 chain: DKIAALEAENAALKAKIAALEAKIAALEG
# 4H342-AA = target: T27, 4H342-AA; settings: mean of both orientations
# T27 chain: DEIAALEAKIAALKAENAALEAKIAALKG
# 4H2505-AA = target: T28, 4H2505-AA; settings: mean of both orientations
# T28 chain: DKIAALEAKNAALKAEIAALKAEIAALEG
# 4H794-AA = target: T29, 4H794-AA; settings: mean of both orientations
# T29 chain: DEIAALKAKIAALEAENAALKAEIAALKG
# 4H2883-AA = target: T30, 4H2883-AA; settings: mean of both orientations
# T30 chain: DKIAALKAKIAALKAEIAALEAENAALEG
# 4H1867-AA = target: T31, 4H1867-AA; settings: mean of both orientations
# T31 chain: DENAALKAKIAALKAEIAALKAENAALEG
# 4H2575-AA = target: T32, 4H2575-AA; settings: mean of both orientations
# T32 chain: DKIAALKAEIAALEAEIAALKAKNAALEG
# 4H2729-AA = target: T33, 4H2729-AA; settings: mean of both orientations
# T33 chain: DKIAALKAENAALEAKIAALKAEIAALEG
# 4H906-AA = target: T34, 4H906-AA; settings: mean of both orientations
# T34 chain: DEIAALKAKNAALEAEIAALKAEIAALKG
# 4H2837-AA = target: T35, 4H2837-AA; settings: mean of both orientations
# T35 chain: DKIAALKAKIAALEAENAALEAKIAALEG
# 4H3627-AA = target: T36, 4H3627-AA; settings: mean of both orientations
# T36 chain: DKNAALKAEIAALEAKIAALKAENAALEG
# 4H2165-AA = target: T37, 4H2165-AA; settings: mean of both orientations
# T37 chain: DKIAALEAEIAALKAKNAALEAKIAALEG
# 4H3921-AA = target: T38, 4H3921-AA; settings: mean of both orientations
# T38 chain: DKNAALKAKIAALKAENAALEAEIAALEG
# 4H2354-AA = target: T39, 4H2354-AA; settings: mean of both orientations
# T39 chain: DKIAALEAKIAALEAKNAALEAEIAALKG
# 4H2949-AA = target: T40, 4H2949-AA; settings: mean of both orientations
# T40 chain: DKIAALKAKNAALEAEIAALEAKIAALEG
# 4H2393-AA = target: T41, 4H2393-AA; settings: mean of both orientations
# T41 chain: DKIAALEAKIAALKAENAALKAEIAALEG
# 4H3343-AA = target: T42, 4H3343-AA; settings: mean of both orientations
# T42 chain: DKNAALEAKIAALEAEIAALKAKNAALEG
# 4H993-AA = target: T43, 4H993-AA; settings: mean of both orientations
# T43 chain: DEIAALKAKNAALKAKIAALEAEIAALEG
# 4H2190-AA = target: T44, 4H2190-AA; settings: mean of both orientations
# T44 chain: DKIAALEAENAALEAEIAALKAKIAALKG
# 4H429-AA = target: T45, 4H429-AA; settings: mean of both orientations
# T45 chain: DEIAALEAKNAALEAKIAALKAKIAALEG
binder,measurement,setting,value
DENAALKAEIAALEAEIAALKAKNAALKG [4H1552-AA],interaction score,4H566-AA,-0.817
same,interaction score,4H454-AA,-0.754
same,interaction score,4H2466-AA,-1.4
same,interaction score,4H2944-AA,-1.04
same,interaction score,4H3112-AA,-0.246
same,interaction score,4H335-AA,1.76
same,interaction score,4H2754-AA,-0.498
same,interaction score,4H3427-AA,1.64
same,interaction score,4H3844-AA,1.43
same,interaction score,4H678-AA,-0.931
same,interaction score,4H2151-AA,-0.598
same,interaction score,4H2617-AA,-0.622
same,interaction score,4H3606-AA,-0.722
same,interaction score,4H881-AA,-0.939
same,interaction score,4H2642-AA,0.755
same,interaction score,4H234-AA,1.6
same,interaction score,4H2078-AA,-0.958
same,interaction score,4H1636-AA,0.254
same,interaction score,4H1552-AA,0.838
same,interaction score,4H3655-AA,1.01
same,interaction score,4H717-AA,-0.949
same,interaction score,4H317-AA,0.795
same,interaction score,4H48-AA,0.191
same,interaction score,4H605-AA,-1.23
same,interaction score,4H780-AA,0.0206
same,interaction score,4H2277-AA,-1.3
same,interaction score,4H342-AA,-0.367
same,interaction score,4H2505-AA,-0.681
same,interaction score,4H794-AA,-1.55
same,interaction score,4H2883-AA,2.2
same,interaction score,4H1867-AA,2.28
same,interaction score,4H2575-AA,-0.206
same,interaction score,4H2729-AA,-0.018
same,interaction score,4H906-AA,-1.18
same,interaction score,4H2837-AA,-0.547
same,interaction score,4H3627-AA,1.45
same,interaction score,4H2165-AA,-1.44
same,interaction score,4H3921-AA,-0.743
same,interaction score,4H2354-AA,-1.41
same,interaction score,4H2949-AA,-1.42
same,interaction score,4H2393-AA,-1.36
same,interaction score,4H3343-AA,0.455
same,interaction score,4H993-AA,-0.53
same,interaction score,4H2190-AA,-0.831
same,interaction score,4H429-AA,-0.746
